Source: paper PMC3470933 (Molecular Microbiology, 2012)

T1: T. brucei pyridoxal kinase (TbPdxK) (Trypanosoma brucei, UniProt O15927)
T1 sequence (O15927 1-300): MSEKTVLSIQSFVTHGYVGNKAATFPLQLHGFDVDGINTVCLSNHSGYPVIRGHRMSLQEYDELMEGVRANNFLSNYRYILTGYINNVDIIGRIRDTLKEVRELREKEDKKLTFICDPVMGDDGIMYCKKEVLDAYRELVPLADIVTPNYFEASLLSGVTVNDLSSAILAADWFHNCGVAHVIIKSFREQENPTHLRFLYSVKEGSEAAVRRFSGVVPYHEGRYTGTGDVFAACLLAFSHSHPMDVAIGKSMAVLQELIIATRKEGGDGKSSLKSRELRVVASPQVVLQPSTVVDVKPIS

B1: T. brucei pyridoxal kinase (TbPdxK) (Trypanosoma brucei) (protein)
chain: MSEKTVLSIQSFVTHGYVGNKAATFPLQLHGFDVDGINTVCLSNHSGYPVIRGHRMSLQEYDELMEGVRANNFLSNYRYILTGYINNVDIIGRIRDTLKEVRELREKEDKKLTFICDPVMGDDGIMYCKKEVLDAYRELVPLADIVTPNYFEASLLSGVTVNDLSSAILAADWFHNCGVAHVIIKSFREQENPTHLRFLYSVKEGSEAAVRRFSGVVPYHEGRYTGTGDVFAACLLAFSHSHPMDVAIGKSMAVLQELIIATRKEGGDGKSSLKSRELRVVASPQVVLQPSTVVDVKPIS

How the values were obtained:
[1] = target: T1, T. brucei pyridoxal kinase (TbPdxK); test: coupled PK/LDH assay; assay type: biochemical; conditions: read-out: Km^app
purified protein [2] = substrate: Cc1ncc(CO)c(CN)c1O; test: purified protein; assay type: biochemical, Trypanosoma brucei; conditions: ATP, Mg2+
purified protein [3] = substrate: Cc1ncc(CO)c(CO)c1O; test: purified protein; assay type: biochemical, Trypanosoma brucei; conditions: ATP, Mg2+
purified protein [4] = substrate: Cc1ncc(CO)c(C=O)c1O; test: purified protein; assay type: biochemical, Trypanosoma brucei; conditions: ATP, Mg2+

Molecule	Km [1] [µM]	Km (purified protein [2]) [µM]	Km (purified protein [3]) [µM]	Km (purified protein [4]) [µM]
COCc1c(CO)cnc(C)c1O [GT, ginkgotoxin]	46.6 ± 10.2			
B1		59.4 ± 14.8	48.0 ± 12.7	1.65 ± 0.14
